Measured values from patent US20130129722A1.

How the values were obtained:
[1] = biological target: Human Ang-2FD-hFc (human); assay: ELISA; 16.67 nM antibody premixed with Ang-2FD-hFc, binding to coated hTie-2-mFc
[2] = biological target: Monkey Ang-2FD-hFc (monkey (Macca fascicularis)); assay: as above
[3] = biological target: Mouse Ang-2FD-hFc (mouse (Mus musculus)); assay: as above
[4] = biological target: Dimeric Human Ang-2FD conjugated to human IgG1 (human); assay: SPR, human IgG1 antibody captured
Dimeric Human Ang-2FD conjugated to human IgG1 (human), sequence (chain, as listed by the source limits assumed): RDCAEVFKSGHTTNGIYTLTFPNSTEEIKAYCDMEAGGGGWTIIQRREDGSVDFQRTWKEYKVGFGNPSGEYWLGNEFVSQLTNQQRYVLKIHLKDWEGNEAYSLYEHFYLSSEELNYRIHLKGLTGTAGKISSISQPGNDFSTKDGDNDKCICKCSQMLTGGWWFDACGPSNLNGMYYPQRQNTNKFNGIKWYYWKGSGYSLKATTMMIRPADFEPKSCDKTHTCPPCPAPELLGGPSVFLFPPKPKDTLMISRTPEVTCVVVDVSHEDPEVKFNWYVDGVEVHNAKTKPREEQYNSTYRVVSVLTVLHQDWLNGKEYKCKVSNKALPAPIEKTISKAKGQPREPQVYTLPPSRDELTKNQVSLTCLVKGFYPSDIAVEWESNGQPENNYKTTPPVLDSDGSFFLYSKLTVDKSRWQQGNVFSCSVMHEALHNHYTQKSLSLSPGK

[5] = biological target: Dimeric Monkey Ang-2FD conjugated to human IgG1 (monkey (Macca fascicularis)); assay: SPR, human IgG1 antibody captured
Dimeric Monkey Ang-2FD conjugated to human IgG1 (monkey (Macca fascicularis)), sequence (chain, as listed by the source limits assumed): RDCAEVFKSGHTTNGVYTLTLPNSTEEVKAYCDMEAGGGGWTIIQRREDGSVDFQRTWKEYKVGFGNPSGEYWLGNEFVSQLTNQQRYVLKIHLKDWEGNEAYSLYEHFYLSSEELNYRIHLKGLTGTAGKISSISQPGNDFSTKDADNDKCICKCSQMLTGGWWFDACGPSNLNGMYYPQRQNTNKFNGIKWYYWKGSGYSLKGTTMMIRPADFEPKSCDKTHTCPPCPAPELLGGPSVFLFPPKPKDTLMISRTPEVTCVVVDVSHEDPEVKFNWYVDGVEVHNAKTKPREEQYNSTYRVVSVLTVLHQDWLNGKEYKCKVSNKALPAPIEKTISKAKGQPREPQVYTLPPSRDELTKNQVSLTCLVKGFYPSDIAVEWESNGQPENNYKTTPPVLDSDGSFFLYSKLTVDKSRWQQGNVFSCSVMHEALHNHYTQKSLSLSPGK

[6] = biological target: Dimeric Mouse Ang-2FD conjugated to human IgG1 (mouse (Mus musculus)); assay: SPR, human IgG1 antibody captured
Dimeric Mouse Ang-2FD conjugated to human IgG1 (mouse (Mus musculus)), sequence (chain, as listed by the source limits assumed): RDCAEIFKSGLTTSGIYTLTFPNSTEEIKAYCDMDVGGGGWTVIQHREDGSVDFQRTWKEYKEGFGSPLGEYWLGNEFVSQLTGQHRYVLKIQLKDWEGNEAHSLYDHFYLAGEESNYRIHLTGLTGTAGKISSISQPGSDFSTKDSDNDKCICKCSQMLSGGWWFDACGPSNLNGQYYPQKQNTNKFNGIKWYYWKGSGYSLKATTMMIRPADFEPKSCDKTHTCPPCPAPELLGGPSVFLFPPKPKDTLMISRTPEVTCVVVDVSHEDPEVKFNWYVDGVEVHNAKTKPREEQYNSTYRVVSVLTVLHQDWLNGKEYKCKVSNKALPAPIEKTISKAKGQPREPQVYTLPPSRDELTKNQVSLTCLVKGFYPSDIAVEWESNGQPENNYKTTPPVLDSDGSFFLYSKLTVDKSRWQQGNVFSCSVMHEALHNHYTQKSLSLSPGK

Percent Blocking of Ang-2FD Binding to Tie-2 [1]: 96.6%
Percent Blocking of Ang-2FD Binding to Tie-2 [2]: 96.6%
Percent Blocking of Ang-2FD Binding to Tie-2 [3]: 97.1%
Kd [4]: 115 pM
T1/2 [4]: 1.78 h
Kd [5]: 239 pM
T1/2 [5]: 2.88 h
Kd [6]: 185 pM
T1/2 [6]: 1.4 h
B1: H1H724N (antibody, V domains shown)
VH: QVQLVESGGGVVQPGRSLRLSCAASGFTLSNYGMHWVRQAPGKGLEWVAVIWHDGSNTYYADSVKGRFTISRDNSKNTLYLQMNSLRAEDTAVYYCTREGLDFWSGYYPNWFDPWGQGTLVTVSS
VL: DIQMTQSPSSLSASVGDRVTITCRASQGIRNDLGWYQQKPGKAPKRLIYAASNLQGGVPSRFSGSGSGTEFTLTISSLQPEDFAAYYCLQHNIYPLTFGGGTKVEIK
